Each substance was assayed against human neonatal Fc receptor FcRn/β2m, soluble recombinant (human) (UniProt P55899) (assay: flow cytometry, labelled FcRn on CHO-displayed HSA, pH 7.4).

Substance | mean geoMFI
HSA [G572D], membrane-tethered on CHO cells (from UniProt P02768 25-609) | 32.7
HSA [G572N], membrane-tethered on CHO cells (from UniProt P02768 25-609) | 36.4
HSA [G572P], membrane-tethered on CHO cells (from UniProt P02768 25-609) | 30.6
HSA [G572V], membrane-tethered on CHO cells (from UniProt P02768 25-609) | 20.7
HSA [Q522A], membrane-tethered on CHO cells (from UniProt P02768 25-609) | 17.8
HSA [Q522D], membrane-tethered on CHO cells (from UniProt P02768 25-609) | 22.4
HSA [Q522E], membrane-tethered on CHO cells (from UniProt P02768 25-609) | 29.2
HSA [Q522H], membrane-tethered on CHO cells (from UniProt P02768 25-609) | 27.2

More lines, now with the values ahead:

mean geoMFI | Substance
31.4 | HSA [Q522N], membrane-tethered on CHO cells (from UniProt P02768 25-609)
29.4 | HSA [Q522P], membrane-tethered on CHO cells (from UniProt P02768 25-609)
17.8 | HSA [Q522R], membrane-tethered on CHO cells (from UniProt P02768 25-609)
32.7 | HSA [Q522S], membrane-tethered on CHO cells (from UniProt P02768 25-609)
28.3 | HSA [Q522T], membrane-tethered on CHO cells (from UniProt P02768 25-609)

The substances below were run against human neonatal Fc receptor FcRn/β2m, soluble recombinant (human) (UniProt P55899) (assay: flow cytometry, labelled FcRn on CHO-displayed HSA, pH 5.5).

Substance | mean geoMFI
HSA [G572D], membrane-tethered on CHO cells (from UniProt P02768 25-609) | 305
HSA [G572N], membrane-tethered on CHO cells (from UniProt P02768 25-609) | 85.8
HSA [G572P], membrane-tethered on CHO cells (from UniProt P02768 25-609) | 216
HSA [G572Q], membrane-tethered on CHO cells (from UniProt P02768 25-609) | 201
HSA [G572V], membrane-tethered on CHO cells (from UniProt P02768 25-609) | 58.2
HSA [Q522D], membrane-tethered on CHO cells (from UniProt P02768 25-609) | 317
HSA [Q522E], membrane-tethered on CHO cells (from UniProt P02768 25-609) | 128

Other lines, results leading:

mean geoMFI | Substance
386 | HSA [Q522R], membrane-tethered on CHO cells (from UniProt P02768 25-609)
258 | HSA [Q522S], membrane-tethered on CHO cells (from UniProt P02768 25-609)
290 | HSA [Q522T], membrane-tethered on CHO cells (from UniProt P02768 25-609)

— US20200325209A1
